Biological target: hBAFF-R-GFP fusion protein on mouse fibroblast L cells (clone D2C) (human) (UniProt Q96RJ3)
Test: flow cytometry on BAFF-R-expressing D2C L cells, 0.5 µg recombinant BAFF/10^6 cells, anti-BAFF-PE; unstained cells 0.0217; in the signal plot the 0 ng trace peaks between 10^2 and 10^3, the unstained one at about 10^2

- gate number, percent of cells above the BAFF-PE line (no % sign printed): 59.6%
Substance: recombinant BAFF ligand (from UniProt Q9Y275 134-285)
